Twelve molecules from patent publication US20260374880 (published 2026) can be followed below.

Like-named read-outs stand apart in the source and are kept apart here.

In assay [1] the target is T1, human TGFbR1 ECD-133-myc(His)6 (human).
T1 chain: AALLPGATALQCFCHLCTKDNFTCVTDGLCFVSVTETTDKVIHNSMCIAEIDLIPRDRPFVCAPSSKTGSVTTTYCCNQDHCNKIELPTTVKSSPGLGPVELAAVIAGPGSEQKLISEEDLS
Put plainly: BLI. For orientation: BLI is a label-free optical method that tracks binding on a fibre tip over time.

Assay [2] deals with T2, human TGFbR1 ECD-133-huFc (human).
T2 chain: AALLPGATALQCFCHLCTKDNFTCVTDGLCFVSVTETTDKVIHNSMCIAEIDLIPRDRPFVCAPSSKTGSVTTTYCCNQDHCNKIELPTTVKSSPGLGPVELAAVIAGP
Put plainly: ELISA.

In assay [3] the target is T1, human TGFbR1 ECD-133-myc(His)6. Put plainly: BLI.
For assay [4] the target is unchanged. Put plainly: ELISA.

B1: YU772-D10 (antibody, V domains shown)
VH: EVQLLESGGGLVQPGGSLRLSCAASGFTFSSYPMSWVRQAPGKGLEWVSAISGYGGSTYYADSVKGRFTISRDNSKNTLYLQMNSLRAEDTAVYYCARVVGYVYDGSYGGGMDYWGQGTLVTVSS
VL: DIQMTQSPSSLSASVGDRVTITCRASQSISSYLNWYQQKPGKAPKLLIYAASSLQSGVPSRFSGSGSGTDFTLTISSLQPEDFATYYCQQGYGPLTFGQGTKLEIK
As a reminder, the Kd is the free concentration of one partner at which half of the binding sites on the other are occupied at equilibrium, for simple one-to-one binding. A high value points to lower affinity. In general, EC50 refers to the midpoint of the concentration-response curve. A low value points to an effect from little substance. For the molecule B1, the dissociation constant Kd in assay [1] worked out at 7.8 nM. Besides, in assay [2], the EC50 was determined as 0.0225 µg/mL.

B2: YU772-A11 (antibody, V domains shown)
VH: EVQLLESGGGLVQPGGSLRLSCAASGFTFSSYAMSWVRQAPGKGLEWVSAISGSGGYTYYADSVKGRFTISRDNSKNTLYLQMNSLRAEDTAVYYCARVVGYVYDGAYGGGMDYWGQGTLVTVSS
VL: DIQMTQSPSSLSASVGDRVTITCRASQSISSYLNWYQQKPGKAPKLLIYAASSLQSGVPSRFSGSGSGTDFTLTISSLQPEDFATYYCQQGYGPLTFGQGTKLEIK
In the case of B2, binding in assay [1] was put at a Kd of 7.9 nM. In assay [2], this molecule showed a half-maximal effective concentration (EC50) of 0.0314 µg/mL.

B3: YU771-B12 (antibody, V domains shown)
VH: EVQLLESGGGLVQPGGSLRLSCAASGFTFSSYPMSWVRQAPGKGLEWVSAISGYGGSTYYADSVKGRFTISRDNSKNTLYLQMNSLRAEDTAVYYCARVVGYVYGGSYGGGMDYWGQGTLVTVSS
VL: DIQMTQSPSSLSASVGDRVTITCRASQSISSYLNWYQQKPGKAPKLLIYAASSLQSGVPSRFSGSGSGTDFTLTISSLQPEDFATYYCQQGYGPLTFGQGTKLEIK
Molecule B3 returned a Kd in assay [1] of 16 nM. The molecule also came in with a concentration giving a half-maximal response (EC50) in assay [2] of 0.0244 µg/mL.

B4: mAb #19 human IgG1-LALA (antibody, V domains shown)
VH: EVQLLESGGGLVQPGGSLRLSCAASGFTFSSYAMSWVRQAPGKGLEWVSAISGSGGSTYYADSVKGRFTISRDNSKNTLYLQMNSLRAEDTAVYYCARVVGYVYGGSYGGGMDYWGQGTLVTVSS
VL: DIQMTQSPSSLSASVGDRVTITCRASQSISSYLNWYQQKPGKAPKLLIYAASSLQSGVPSRFSGSGSGTDFTLTISSLQPEDFATYYCQQGYGPLTFGQGTKLEIK
As a reminder, the IC50 is the concentration at which inhibition is half-maximal. Read a low IC50 as greater potency. For B4, the Kd in assay [3] turned out to be 5.9 nM. This molecule had a concentration for half-maximal inhibition (IC50) in assay [4] of 0.139 nM.

B5: YU771-A01 (antibody, V domains shown)
VH: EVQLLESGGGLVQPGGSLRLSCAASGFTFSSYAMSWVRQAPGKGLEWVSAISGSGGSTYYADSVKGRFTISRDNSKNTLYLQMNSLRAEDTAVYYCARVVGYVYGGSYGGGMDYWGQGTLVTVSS
VL: DIQMTQSPSSLSASVGDRVTITCRASQSISSYLNWYQQKPGKAPKLLIYGASFLQYGVPSRFSGSGSGTDFTLTISSLQPEDFATYYCQQGYGPLTFGQGTKLEIK
As for B5, the affinity in assay [1], expressed as Kd, was 11 nM. In assay [2], this molecule yielded an EC50 of 0.022 µg/mL.

B6: YU772-G04_VH-YU771-A09-VL (antibody, V domains shown)
VH: EVQLLESGGGLVQPGGSLRLSCAASGFPFSSYAMSWVRQAPGKGLEWVSAISGSGGTTYYADSVKGRFTISRDNSKNTLYLQMNSLRAEDTAVYYCARVAGYVHRGFYGGGMDYWGQGTLVTVSS
VL: DIQMTQSPSSLSASVGDRVTITCRASQSIYSHLNWYQQKPGKAPKLLIYAASTLQSGVPSRFSGSGSGTDFTLTISSLQPEDFATYYCQQAYGPLTFGQGTKLEIK
In assay [1], B6 gave an equilibrium dissociation constant (Kd) of 8.8 nM. This molecule displayed an EC50 in assay [2] of 0.0257 µg/mL.

B7: YU771-E01 (antibody, V domains shown)
VH: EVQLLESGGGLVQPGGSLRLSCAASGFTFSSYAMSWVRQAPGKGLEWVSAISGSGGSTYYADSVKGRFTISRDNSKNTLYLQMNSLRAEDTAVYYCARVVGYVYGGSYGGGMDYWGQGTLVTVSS
VL: DIQMTQSPSSLSASVGDRVTITCRASESISSYLNWYQQKPGKAPKLLIYGASFLQWGVPSRFSGSGSGTDFTLTISSLQPEDFATYYCQQGYGPLTFGQGTKLEIK
For the molecule B7, the dissociation constant (Kd) in assay [1] worked out at 8.9 nM. For the same molecule, the EC50 in assay [2] came out at 0.0231 µg/mL.

B8: YU772-F11 (antibody, V domains shown)
VH: EVQLLESGGGLVQPGGSLRLSCAASGFTFSTYPMSWVRQAPGKGLEWVSAISGSGGSTYYADSVKGRFTISRDNSKNTLYLQMNSLRAEDTAVYYCARVVGYVYRGSYGGGMDYWGQGTLVTVSS
VL: DIQMTQSPSSLSASVGDRVTITCRASQSISSYLNWYQQKPGKAPKLLIYAASSLQSGVPSRFSGSGSGTDFTLTISSLQPEDFATYYCQQGYGPLTFGQGTKLEIK
B8: the Kd in assay [1] came out at 7.6 nM. The molecule also had an EC50 in assay [2] of 0.0249 µg/mL.

B9: Antibody 19 (parental) (antibody, V domains shown)
VH: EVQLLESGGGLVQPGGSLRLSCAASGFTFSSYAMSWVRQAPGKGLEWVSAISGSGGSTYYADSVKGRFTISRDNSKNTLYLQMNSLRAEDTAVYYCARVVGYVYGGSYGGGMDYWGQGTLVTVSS
VL: DIQMTQSPSSLSASVGDRVTITCRASQSISSYLNWYQQKPGKAPKLLIYAASSLQSGVPSRFSGSGSGTDFTLTISSLQPEDFATYYCQQGYGPLTFGQGTKLEIK
In assay [1], B9 showed a Kd of 22 nM. In addition, the half-maximal effective concentration (EC50) in assay [2] worked out at 0.139 µg/mL.

B10: YU772-G12 (antibody, V domains shown)
VH: EVQLLESGGGLVQPGGSLRLSCAASGFPFSTYAMSWVRQAPGKGLEWVSAISGSGGYTYYADSVKGRFTISRDNSKNTLYLQMNSLRAEDTAVYYCARVVGYVYGGSYGGGMDYWGQGTLVTVSS
VL: DIQMTQSPSSLSASVGDRVTITCRASQSISSYLNWYQQKPGKAPKLLIYAASSLQSGVPSRFSGSGSGTDFTLTISSLQPEDFATYYCQQGYGPLTFGQGTKLEIK
In assay [1], B10 showed a Kd of 8.7 nM. For the same molecule, in assay [2], the EC50 came to 0.0213 µg/mL.

B11: YU772-D10_VH-YU772-C01_VL (antibody, V domains shown)
VH: EVQLLESGGGLVQPGGSLRLSCAASGFTFSSYPMSWVRQAPGKGLEWVSAISGYGGSTYYADSVKGRFTISRDNSKNTLYLQMNSLRAEDTAVYYCARVVGYVYDGSYGGGMDYWGQGTLVTVSS
VL: DIQMTQSPSSLSASVGDRVTITCRASQSIWSYLNWYQQKPGKAPKLLIYAASSLQSGVPSRFSGSGSGTDFTLTISSLQPEDFATYYCQQGYGPLTFGQGTKLEIK
As for B11, the dissociation constant (Kd) in assay [1] turned out to be 7.3 nM. Further, a half-maximal effect in assay [2] (EC50) was put at 0.0303 µg/mL.

B12: YU772-H05 (antibody, V domains shown)
VH: EVQLLESGGGLVQPGGSLRLSCAASGFTFSSYAMSWVRQAPGKGLEWVSAISGSGGTTYYADSVKGRFTISRDNSKNTLYLQMNSLRAEDTAVYYCARVVGYVFGGYYGGGMDYWGQGTLVTVSS
VL: DIQMTQSPSSLSASVGDRVTITCRASQSISSYLNWYQQKPGKAPKLLIYAASSLQSGVPSRFSGSGSGTDFTLTISSLQPEDFATYYCQQGYGPLTFGQGTKLEIK
B12 displayed a dissociation constant (Kd) in assay [1] of 12 nM. In addition, the concentration giving a half-maximal response (EC50) in assay [2] turned out to be 0.03 µg/mL.
